For orientation: Kd means the constant that tells how readily two partners part at equilibrium.

Results on two molecules are retold here after US12036274B2, “Recombinant MPT protein derived from MPT63 and MPT64 and use thereof” (priority 2021, dated 2024).

The subject of assay [1] is TBK1 and p47phox. Put plainly: Co-immunoprecipitation of rMPT63 in THP-1 cells. Type of assay: cell-based, human. As to conditions: 5 μg/ml.
The target of assay [2] is TBK1 (Homo sapiens, UniProt Q9UHD2). The note with it: read-out: Kd of interaction with TBK1; fluorescently labeled protein titrated with unlabeled TBK1, curve fitting, 25° C., pH 7.4.
Experimental: (§1) The interaction of MPT63-TBK1 with p47phox and the interaction of MPT64-TBK1 with HK2 were monitored using a Fluoromax-4 spectrofluorometer (HORIBA Scientific) which was performed as previously described (Guo et al., 2005). MPT63 and MPT64, respectively, were labeled with BODIPY FL Iodoacetamide (ThermoFisher Scientific) according to the manufacturer's instructions. The labeled MPT63 or MPT64 was excited at 350 nm and detected through a cutoff filter at 512 nm. The fluorescently labeled MPT63 or MPT64 was titrated with unlabeled TBK1, p47phox or HK2 for kinetic analysis. The excitation and emission wavelengths were 498 mm and 518 nm, respectively. The obtained data were verified using the Grafit program, and all fluorescence measurements were performed at 25° C. in 30 mM Tris, pH 7.4, 150 mM NaCl and 1 mM dithiothryitol.
The target in assay [3] is T1, p47phox (Homo sapiens, UniProt P14598).
T1 sequence (P14598 1-390): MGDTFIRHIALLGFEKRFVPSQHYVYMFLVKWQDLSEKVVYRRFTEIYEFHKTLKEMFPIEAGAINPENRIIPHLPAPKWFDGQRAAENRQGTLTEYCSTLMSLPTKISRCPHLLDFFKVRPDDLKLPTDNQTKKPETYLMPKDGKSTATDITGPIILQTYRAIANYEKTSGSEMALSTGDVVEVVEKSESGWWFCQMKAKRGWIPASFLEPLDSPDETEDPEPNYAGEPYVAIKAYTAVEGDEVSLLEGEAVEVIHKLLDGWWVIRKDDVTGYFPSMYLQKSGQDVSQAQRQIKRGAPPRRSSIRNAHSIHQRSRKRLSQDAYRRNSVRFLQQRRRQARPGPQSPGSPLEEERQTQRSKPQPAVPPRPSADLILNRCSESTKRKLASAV
As to conditions: read-out: Kd of interaction with p47phox; fluorescently labeled MPT63 titrated with unlabeled p47phox, 25° C., pH 7.4.
Experimental: as §1

In assay [4] the target is HK2 (Homo sapiens, UniProt P52789).
Experimental: as §1
For assay [5], the target named is T2, TBK1 and HK2 (Homo sapiens, UniProt Q9UHD2).
T2 construct: endogenous in cells; host or cells: THP-1
T2 sequence (Q9UHD2 1-729): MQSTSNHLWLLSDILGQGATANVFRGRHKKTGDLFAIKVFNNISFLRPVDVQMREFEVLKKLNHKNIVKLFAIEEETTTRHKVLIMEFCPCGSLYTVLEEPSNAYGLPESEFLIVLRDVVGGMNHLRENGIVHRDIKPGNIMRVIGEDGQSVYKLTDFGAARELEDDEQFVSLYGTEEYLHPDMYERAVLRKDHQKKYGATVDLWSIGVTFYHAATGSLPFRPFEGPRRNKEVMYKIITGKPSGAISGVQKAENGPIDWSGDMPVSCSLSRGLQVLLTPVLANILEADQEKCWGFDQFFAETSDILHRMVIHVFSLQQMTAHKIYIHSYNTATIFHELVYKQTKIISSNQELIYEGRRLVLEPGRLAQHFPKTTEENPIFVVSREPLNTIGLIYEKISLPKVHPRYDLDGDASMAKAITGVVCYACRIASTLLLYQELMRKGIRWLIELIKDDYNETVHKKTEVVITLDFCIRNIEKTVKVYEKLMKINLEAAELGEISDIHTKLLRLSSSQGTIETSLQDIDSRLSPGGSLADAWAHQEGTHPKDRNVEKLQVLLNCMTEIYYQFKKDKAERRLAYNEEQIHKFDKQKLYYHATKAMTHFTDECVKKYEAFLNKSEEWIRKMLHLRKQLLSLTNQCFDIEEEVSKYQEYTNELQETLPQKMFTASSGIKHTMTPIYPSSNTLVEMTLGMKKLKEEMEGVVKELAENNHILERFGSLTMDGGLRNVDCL
Put plainly: Co-immunoprecipitation of rMPT64 in THP-1 cells. Type of assay: cell-based. The note with it: 5 μg/ml.

Sequence of HK2 (P52789 whole entry): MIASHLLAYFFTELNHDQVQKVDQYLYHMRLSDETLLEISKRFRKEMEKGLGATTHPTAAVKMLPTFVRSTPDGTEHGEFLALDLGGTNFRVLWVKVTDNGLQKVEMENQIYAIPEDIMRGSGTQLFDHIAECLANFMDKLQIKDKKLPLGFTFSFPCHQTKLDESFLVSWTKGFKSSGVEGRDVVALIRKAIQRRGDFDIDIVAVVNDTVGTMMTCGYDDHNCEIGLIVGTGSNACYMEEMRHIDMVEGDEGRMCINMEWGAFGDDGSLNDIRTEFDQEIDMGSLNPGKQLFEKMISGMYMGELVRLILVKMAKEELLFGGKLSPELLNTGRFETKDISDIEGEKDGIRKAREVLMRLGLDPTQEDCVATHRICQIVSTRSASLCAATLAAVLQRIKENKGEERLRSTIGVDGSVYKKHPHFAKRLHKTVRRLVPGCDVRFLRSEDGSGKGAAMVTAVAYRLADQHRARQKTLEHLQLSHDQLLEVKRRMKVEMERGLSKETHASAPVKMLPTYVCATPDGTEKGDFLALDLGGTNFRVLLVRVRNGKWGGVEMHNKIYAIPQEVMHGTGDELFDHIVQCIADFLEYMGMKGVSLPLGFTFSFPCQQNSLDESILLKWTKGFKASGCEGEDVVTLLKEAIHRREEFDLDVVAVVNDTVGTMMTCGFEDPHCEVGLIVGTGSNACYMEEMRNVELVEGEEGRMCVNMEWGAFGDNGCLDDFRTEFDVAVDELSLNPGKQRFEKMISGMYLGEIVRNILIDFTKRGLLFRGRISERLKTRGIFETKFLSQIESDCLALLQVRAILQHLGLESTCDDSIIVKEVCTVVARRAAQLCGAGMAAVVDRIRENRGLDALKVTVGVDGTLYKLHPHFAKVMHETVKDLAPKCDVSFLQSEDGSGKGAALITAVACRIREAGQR

B1: MPT63: secreted antigen of Mycobacterium tuberculosis, recombinant, purified with the 6×His bacterial expression system (protein)
chain: AYPITGKLGSELTMTDTVGQVVLGWKVSDLKSSTAVIPGYPVAGQVWEATATVNAIRGSVTPAVSQFNARTADGINYRVLWQAAGPDTISGATIPQGEQSTGKIYFDVTGPSPTIVAMNNGMEDLLIWEP
modifications: left off: small tags and cut ends
notes: secreted antigen of Mycobacterium tuberculosis, recombinant, purified with the 6×His bacterial expression system
Regarding B1, the “endogenous interaction with TBK1 and p47phox” value in assay [1] is on record as “endogenously interacted”. The values for the Kd in assay [2] and in assay [3] were 178 nM and 345 nM, respectively.

B2: MPT64: secreted antigen of Mycobacterium tuberculosis, recombinant, produced in a bacterial expression system (protein)
chain: APKTYCEELKGTDTGQACQIQMSDPAYNINISLPSYYPDQKSLENYIAQTRDKFLSAATSSTPREAPYELNITSATYQSAIPPRGTQAVVLKVYQNAGGTHPTTTYKAFDWDQAYRKPITYDTLWQADTDPLPVVFPIVQGELSKQTGQQVSIAPNAGLDPVNYQNFAVTNDGVIFFFNPGELLPEAAGPTQVLVPRSAIDSMLA
modifications: left off: small tags and cut ends
notes: secreted antigen of Mycobacterium tuberculosis, recombinant, produced in a bacterial expression system
Take B2: the Kd is 134 nM in assay [4] and 193 nM in assay [2]. Besides, the “interaction with phosphorylated TBK1 (S172)” value in assay [5] is “interacts”.
